The values below come from patent US20210317480.

In data set [1] the test system is T1, G8PEX, extracellular region of the major coat protein G8P from bacteriophage M13.
T1 sequence: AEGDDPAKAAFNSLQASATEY

Data set [2] concerns T2, G8PEX ortholog peptide from L. monocytogenes (strain M7) bacteriophage M7.
T2 sequence: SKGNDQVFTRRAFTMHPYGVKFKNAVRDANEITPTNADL

The test system of data set [3] is T3, G8PEX from bacteriophage I2-2.
T3 sequence: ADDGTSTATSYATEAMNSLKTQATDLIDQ

The test system of data set [4] is T4, G8PEX from bacteriophage f1.
T4 sequence: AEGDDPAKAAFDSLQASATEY

In data set [5] the test system is T5, G8PEX from Pseudomonas phage Pf1.
T5 sequence: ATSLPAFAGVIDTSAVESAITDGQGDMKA

For “Streptococcus pyogenes Cas9 nuclease (SpCas9)”, the “in vitro DNA cleavage by pre-assembled Cas9 RNP” value in data set [1] was “the activity of pre-assembled Cas9 RNP was not affected by G8PEX”. The “in vitro cleavage activity of SpCas9” value in data set [1], in data set [3], in data set [4] and in data set [5] was “could efficiently inhibit the cleavage activity of SpCas9 in vitro” each time. For the same substance, the “DNA cleavage activity of SpCas9” value in data set [2] is given as “efficiently prohibited SpCas9 to bind to sgRNA (FIG. 7d) or cleave DNA substrate (FIG. 7e)”.
